Results taken from patent publication US20130005646A1 (Novo Nordisk, published 2013).
Starred links: 1 amine or outer side, 2 acyl side, 3 side chain; linkers in the order of their positions; H or OH if unused. Positions of bridges follow the written chain, without caps; N, C: chain ends. Non-standard residues stand in square brackets, D forms with d. *: point of attachment. C20 diacid = O=C(O)CCCCCCCCCCCCCCCCCCC(=O)*; C18 diacid = O=C(O)CCCCCCCCCCCCCCCCC(=O)*; γGlu = O=C(O)[C@H](CCC(=O)[*:2])N[*:1]; Orn = NCCC[C@H](N)C(=O)O; AEEA = NCCOCCOCC(=O)O

T1: rat amylin 3(a) receptor (rat calcitonin(a) receptor + rat RAMP3) (rat, UniProt P32214 25-516; Q9JJ73 23-147)
T1 sequence (looked up) 1: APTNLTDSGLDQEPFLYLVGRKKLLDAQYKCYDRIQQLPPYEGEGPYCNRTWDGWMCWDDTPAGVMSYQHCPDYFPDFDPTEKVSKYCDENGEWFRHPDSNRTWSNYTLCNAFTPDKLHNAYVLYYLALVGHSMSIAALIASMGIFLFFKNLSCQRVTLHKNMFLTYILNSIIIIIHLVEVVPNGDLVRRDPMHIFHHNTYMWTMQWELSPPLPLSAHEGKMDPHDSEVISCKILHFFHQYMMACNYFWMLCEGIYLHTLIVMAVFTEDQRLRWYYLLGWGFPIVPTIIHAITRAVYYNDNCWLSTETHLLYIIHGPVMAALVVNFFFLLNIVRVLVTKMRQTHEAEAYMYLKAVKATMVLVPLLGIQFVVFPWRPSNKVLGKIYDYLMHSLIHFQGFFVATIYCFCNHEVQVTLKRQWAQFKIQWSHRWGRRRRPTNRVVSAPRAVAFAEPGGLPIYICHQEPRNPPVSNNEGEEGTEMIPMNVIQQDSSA
T1 sequence (looked up) 2: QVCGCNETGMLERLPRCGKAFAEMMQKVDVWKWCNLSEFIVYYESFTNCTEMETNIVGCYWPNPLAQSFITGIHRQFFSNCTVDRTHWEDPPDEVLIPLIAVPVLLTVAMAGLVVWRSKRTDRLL

T2: rat calcitonin (a) receptor (rat, UniProt P32214 25-516)
T2 sequence (looked up): T1 sequence (looked up) 1

T3: human calcitonin (a) receptor (human, UniProt P30988 25-474)
T3 sequence (looked up): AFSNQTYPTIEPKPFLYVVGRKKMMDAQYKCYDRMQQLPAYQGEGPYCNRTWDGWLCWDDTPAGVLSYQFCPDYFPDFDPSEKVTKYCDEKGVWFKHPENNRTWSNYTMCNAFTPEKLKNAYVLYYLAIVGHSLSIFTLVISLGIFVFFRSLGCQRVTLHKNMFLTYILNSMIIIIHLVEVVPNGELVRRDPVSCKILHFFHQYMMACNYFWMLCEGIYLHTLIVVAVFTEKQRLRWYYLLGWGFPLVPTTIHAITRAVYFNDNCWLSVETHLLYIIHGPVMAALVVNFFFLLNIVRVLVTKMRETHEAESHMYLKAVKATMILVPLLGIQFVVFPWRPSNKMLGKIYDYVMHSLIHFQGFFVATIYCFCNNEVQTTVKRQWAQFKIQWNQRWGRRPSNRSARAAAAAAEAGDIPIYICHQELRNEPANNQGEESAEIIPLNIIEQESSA

T4: human amylin 3(a) receptor (human calcitonin receptor + RAMP-3) (human, UniProt P30988 25-474; O60896 24-148)
T4 sequence (looked up) 1: T3 sequence (looked up)
T4 sequence (looked up) 2: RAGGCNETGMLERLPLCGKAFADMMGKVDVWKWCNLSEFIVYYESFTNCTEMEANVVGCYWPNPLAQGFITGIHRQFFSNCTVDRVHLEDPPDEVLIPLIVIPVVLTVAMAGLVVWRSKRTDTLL

B1: N-alpha-[(S)-4-Carboxy-4-(19-carboxynonadecanoylamino)butyryl]-[Arg1,Glu14,His17,Pro37]-pramlintide (peptide)
peptide: {C20 diacid-γGlu}-RCNTATCATQRLAEFLHHSSNNFGPILPPTNVGSNTP-NH2
modifications: disulfide 2-7
SMILES: CC[C@H](C)[C@H](NC(=O)[C@@H]1CCCN1C(=O)CNC(=O)[C@H](Cc1ccccc1)NC(=O)[C@H](CC(N)=O)NC(=O)[C@H](CC(N)=O)NC(=O)[C@H](CO)NC(=O)[C@H](CO)NC(=O)[C@H](Cc1c[nH]cn1)NC(=O)[C@H](Cc1c[nH]cn1)NC(=O)[C@H](CC(C)C)NC(=O)[C@H](Cc1ccccc1)NC(=O)[C@H](CCC(=O)O)NC(=O)[C@H](C)NC(=O)[C@H](CC(C)C)NC(=O)[C@H](CCCNC(=N)N)NC(=O)[C@H](CCC(N)=O)NC(=O)[C@@H](NC(=O)[C@H](C)NC(=O)[C@@H]1CSSC[C@H](NC(=O)[C@H](CCCNC(=N)N)NC(=O)CC[C@H](NC(=O)CCCCCCCCCCCCCCCCCCC(=O)O)C(=O)O)C(=O)N[C@@H](CC(N)=O)C(=O)N[C@@H]([C@@H](C)O)C(=O)N[C@@H](C)C(=O)N[C@@H]([C@@H](C)O)C(=O)N1)[C@@H](C)O)C(=O)N[C@@H](CC(C)C)C(=O)N1CCC[C@H]1C(=O)N1CCC[C@H]1C(=O)N[C@H](C(=O)N[C@@H](CC(N)=O)C(=O)N[C@H](C(=O)NCC(=O)N[C@@H](CO)C(=O)N[C@@H](CC(N)=O)C(=O)N[C@H](C(=O)N1CCC[C@H]1C(N)=O)[C@@H](C)O)C(C)C)[C@@H](C)O
B2: N-alpha-[2-(2-{2-[2-(2-{2-[(S)-4-Carboxy-4-(17-carboxyheptadecanoylamino)butyrylamino]ethoxy}ethoxy)acetylamino]ethoxy}ethoxy)acetyl]-D-Arg-D-Arg-[Orn1,Glu14,Hi … (peptide)
peptide: {C18 diacid-γGlu-AEEA-AEEA}-[dR][dR][Orn]CNTATCATQRLAEFLHRSSNNFGPILPPTNVGSNTY-NH2
modifications: disulfide 4-9
SMILES: CC[C@H](C)[C@H](NC(=O)[C@@H]1CCCN1C(=O)CNC(=O)[C@H](Cc1ccccc1)NC(=O)[C@H](CC(N)=O)NC(=O)[C@H](CC(N)=O)NC(=O)[C@H](CO)NC(=O)[C@H](CO)NC(=O)[C@H](CCCNC(=N)N)NC(=O)[C@H](Cc1c[nH]cn1)NC(=O)[C@H](CC(C)C)NC(=O)[C@H](Cc1ccccc1)NC(=O)[C@H](CCC(=O)O)NC(=O)[C@H](C)NC(=O)[C@H](CC(C)C)NC(=O)[C@H](CCCNC(=N)N)NC(=O)[C@H](CCC(N)=O)NC(=O)[C@@H](NC(=O)[C@H](C)NC(=O)[C@@H]1CSSC[C@H](NC(=O)[C@H](CCCN)NC(=O)[C@@H](CCCNC(=N)N)NC(=O)[C@@H](CCCNC(=N)N)NC(=O)COCCOCCNC(=O)COCCOCCNC(=O)CC[C@H](NC(=O)CCCCCCCCCCCCCCCCC(=O)O)C(=O)O)C(=O)N[C@@H](CC(N)=O)C(=O)N[C@@H]([C@@H](C)O)C(=O)N[C@@H](C)C(=O)N[C@@H]([C@@H](C)O)C(=O)N1)[C@@H](C)O)C(=O)N[C@@H](CC(C)C)C(=O)N1CCC[C@H]1C(=O)N1CCC[C@H]1C(=O)N[C@H](C(=O)N[C@@H](CC(N)=O)C(=O)N[C@H](C(=O)NCC(=O)N[C@@H](CO)C(=O)N[C@@H](CC(N)=O)C(=O)N[C@H](C(=O)N[C@@H](Cc1ccc(O)cc1)C(N)=O)[C@@H](C)O)C(C)C)[C@@H](C)O
B3: N-alpha-[(S)-4-Carboxy-4-(19-carboxynonadecanoylamino)butyryl]-[His1,Glu14,His17,Arg18]-pramlintide (peptide)
peptide: {C20 diacid-γGlu}-HCNTATCATQRLAEFLHRSSNNFGPILPPTNVGSNTY-NH2
modifications: disulfide 2-7
SMILES: CC[C@H](C)[C@H](NC(=O)[C@@H]1CCCN1C(=O)CNC(=O)[C@H](Cc1ccccc1)NC(=O)[C@H](CC(N)=O)NC(=O)[C@H](CC(N)=O)NC(=O)[C@H](CO)NC(=O)[C@H](CO)NC(=O)[C@H](CCCNC(=N)N)NC(=O)[C@H](Cc1c[nH]cn1)NC(=O)[C@H](CC(C)C)NC(=O)[C@H](Cc1ccccc1)NC(=O)[C@H](CCC(=O)O)NC(=O)[C@H](C)NC(=O)[C@H](CC(C)C)NC(=O)[C@H](CCCNC(=N)N)NC(=O)[C@H](CCC(N)=O)NC(=O)[C@@H](NC(=O)[C@H](C)NC(=O)[C@@H]1CSSC[C@H](NC(=O)[C@H](Cc2c[nH]cn2)NC(=O)CC[C@H](NC(=O)CCCCCCCCCCCCCCCCCCC(=O)O)C(=O)O)C(=O)N[C@@H](CC(N)=O)C(=O)N[C@@H]([C@@H](C)O)C(=O)N[C@@H](C)C(=O)N[C@@H]([C@@H](C)O)C(=O)N1)[C@@H](C)O)C(=O)N[C@@H](CC(C)C)C(=O)N1CCC[C@H]1C(=O)N1CCC[C@H]1C(=O)N[C@H](C(=O)N[C@@H](CC(N)=O)C(=O)N[C@H](C(=O)NCC(=O)N[C@@H](CO)C(=O)N[C@@H](CC(N)=O)C(=O)N[C@H](C(=O)N[C@@H](Cc1ccc(O)cc1)C(N)=O)[C@@H](C)O)C(C)C)[C@@H](C)O
B4: N-alpha-[(S)-4-Carboxy-4-(19-carboxynonadecanoylamino)butyryl]-Gly-[Arg1,Glu14,His17,Pro37]-pramlintide (peptide)
peptide: {C20 diacid-γGlu}-GRCNTATCATQRLAEFLHHSSNNFGPILPPTNVGSNTP-NH2
modifications: disulfide 3-8
SMILES: CC[C@H](C)[C@H](NC(=O)[C@@H]1CCCN1C(=O)CNC(=O)[C@H](Cc1ccccc1)NC(=O)[C@H](CC(N)=O)NC(=O)[C@H](CC(N)=O)NC(=O)[C@H](CO)NC(=O)[C@H](CO)NC(=O)[C@H](Cc1c[nH]cn1)NC(=O)[C@H](Cc1c[nH]cn1)NC(=O)[C@H](CC(C)C)NC(=O)[C@H](Cc1ccccc1)NC(=O)[C@H](CCC(=O)O)NC(=O)[C@H](C)NC(=O)[C@H](CC(C)C)NC(=O)[C@H](CCCNC(=N)N)NC(=O)[C@H](CCC(N)=O)NC(=O)[C@@H](NC(=O)[C@H](C)NC(=O)[C@@H]1CSSC[C@H](NC(=O)[C@H](CCCNC(=N)N)NC(=O)CNC(=O)CC[C@H](NC(=O)CCCCCCCCCCCCCCCCCCC(=O)O)C(=O)O)C(=O)N[C@@H](CC(N)=O)C(=O)N[C@@H]([C@@H](C)O)C(=O)N[C@@H](C)C(=O)N[C@@H]([C@@H](C)O)C(=O)N1)[C@@H](C)O)C(=O)N[C@@H](CC(C)C)C(=O)N1CCC[C@H]1C(=O)N1CCC[C@H]1C(=O)N[C@H](C(=O)N[C@@H](CC(N)=O)C(=O)N[C@H](C(=O)NCC(=O)N[C@@H](CO)C(=O)N[C@@H](CC(N)=O)C(=O)N[C@H](C(=O)N1CCC[C@H]1C(N)=O)[C@@H](C)O)C(C)C)[C@@H](C)O

Each binder was assayed against T1, rat amylin 3(a) receptor (rat …) (assay: cell-based or functional assay).

| Binder | Amylin receptor rat EC50 [nM] |
| --- | --- |
| B1 | 0.088 |
| B2 | 0.033 |
| B3 | 0.0645 |
| B4 | 0.075 |

The binders below were run against T2, rat calcitonin (a) receptor (assay: cell-based or functional assay).

| Binder | CTa receptor rat EC50 [nM] |
| --- | --- |
| B1 | 0.058 |
| B2 | 2.57 |
| B3 | 0.379 |
| B4 | 0.044 |

Each binder was assayed against T3, human calcitonin (a) receptor (assay: cell-based or functional assay).

| Binder | CTa receptor human EC50 [nM] |
| --- | --- |
| B1 | 0.055 |
| B2 | 0.691 |
| B3 | 0.15 |
| B4 | 0.0455 |

These binders were tested against T4, human amylin 3(a) receptor (human …) (assay: cell-based or functional assay).

| Binder | Amylin receptor human EC50 [nM] |
| --- | --- |
| B1 | 0.043 |
| B2 | 0.0295 |
| B3 | 0.0934 |
| B4 | 0.0515 |
